In paper PMC6255812:

Experiments:
[1] = biological target: full-length ACA8 (plasma-membrane Ca2+-ATPase ACA8) (UniProt Q9LF79)
[2] = biological target: full-length ACA8 (plasma-membrane Ca2+-ATPase ACA8) (UniProt Q9LF79); assay: native MS; DDM-solubilised ACA8, apo and with CaM; 200 mM ammonium acetate pH 8.3, 0.018% DDM; nanoESI, spectra at 200 V collision energy
[3] = biological target: fluorescein-labeled regulatory domain of ACA8 (ACA8RD, residues 1-130) (UniProt Q9LF79); assay: fluorescence polarisation; fluorescence anisotropy, displacement; CaM added to a preformed complex of ACA8core (POPC nanodiscs) and labelled ACA8RD; decrease in anisotropy
Sequence of fluorescein-labeled regulatory domain of ACA8 (ACA8RD, residues 1-130) (Q9LF79 other isoform, or with tags, fused parts or gaps): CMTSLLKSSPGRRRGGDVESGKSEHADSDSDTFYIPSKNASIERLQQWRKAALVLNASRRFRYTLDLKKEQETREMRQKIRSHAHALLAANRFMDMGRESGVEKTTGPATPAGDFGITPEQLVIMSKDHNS

Sequence of full-length ACA8 (plasma-membrane Ca2+-ATPase ACA8) (Q9LF79 whole entry, the tested form may be a part): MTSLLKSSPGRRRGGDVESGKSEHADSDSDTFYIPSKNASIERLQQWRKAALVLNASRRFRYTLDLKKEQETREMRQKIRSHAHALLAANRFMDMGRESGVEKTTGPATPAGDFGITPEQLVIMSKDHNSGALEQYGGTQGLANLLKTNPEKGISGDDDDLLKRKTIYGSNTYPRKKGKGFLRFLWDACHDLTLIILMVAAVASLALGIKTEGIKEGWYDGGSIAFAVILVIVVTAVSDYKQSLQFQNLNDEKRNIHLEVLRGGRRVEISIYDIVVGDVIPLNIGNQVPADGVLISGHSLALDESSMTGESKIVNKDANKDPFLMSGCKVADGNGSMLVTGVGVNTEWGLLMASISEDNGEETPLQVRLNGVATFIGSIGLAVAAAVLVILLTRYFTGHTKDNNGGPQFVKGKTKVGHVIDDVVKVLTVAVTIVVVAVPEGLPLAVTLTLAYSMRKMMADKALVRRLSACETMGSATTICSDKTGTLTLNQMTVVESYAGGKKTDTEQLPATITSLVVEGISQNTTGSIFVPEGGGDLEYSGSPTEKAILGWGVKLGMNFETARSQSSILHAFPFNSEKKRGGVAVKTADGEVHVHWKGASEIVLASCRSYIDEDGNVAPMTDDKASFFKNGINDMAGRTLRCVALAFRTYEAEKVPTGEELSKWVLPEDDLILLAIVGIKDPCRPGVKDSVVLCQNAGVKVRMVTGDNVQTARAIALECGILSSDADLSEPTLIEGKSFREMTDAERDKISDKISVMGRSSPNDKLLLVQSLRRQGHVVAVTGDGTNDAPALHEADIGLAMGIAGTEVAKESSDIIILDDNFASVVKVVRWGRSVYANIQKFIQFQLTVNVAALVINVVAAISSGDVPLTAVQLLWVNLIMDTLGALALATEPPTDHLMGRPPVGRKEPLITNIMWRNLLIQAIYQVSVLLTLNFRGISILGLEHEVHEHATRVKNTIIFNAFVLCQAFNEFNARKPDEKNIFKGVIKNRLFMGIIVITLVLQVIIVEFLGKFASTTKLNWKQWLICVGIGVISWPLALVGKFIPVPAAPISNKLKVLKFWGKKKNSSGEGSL

calmodulin CaM7 from A. thaliana (from UniProt P59220 1-149) (natural protein)
ATPase activity (Baginski assay) of detergent solubilized ACA8 with CaM against basal activity without CaM [1]: 2 fold | stoichiometry N [2]: < 2 | K0.5 [3]: 120 nM
